Experiments:
003m-P215S (RSV) [1] = assay: flow cytometry, Expi293F cells, mRNA-LNP (RL151)
003m-P215S-1×GCN4t (RSV) [2] = assay: flow cytometry, Expi293F cells, mRNA-LNP (RL151)
003m-P215S-S-3N [3] = assay: flow cytometry, Expi293F cells, mRNA-LNP (RL151)
003m-P215S-ΔF111 (RSV) = assay: flow cytometry, Expi293F cells, mRNA-LNP (RL151)
[4] = target: 003m-P215S-ΔF111-1×GCN4t (RSV); assay: flow cytometry, Expi293F cells, mRNA-LNP (RL151)
003m-P215S-ΔF111-S-3N = assay: flow cytometry, Expi293F cells, mRNA-LNP (RL151)
003M-P215S-L (RSV) = assay: flow cytometry, Expi293F cells, Lipofectamine 2000-mRNA
003M-P215S-L-3N (RSV) = assay: as above
003M-P215S-S (RSV) = assay: as above
003m-P215S (RSV) [5] = assay: as above
003m-P215S-2×GCN4t (RSV) = assay: as above
003m-P215S-S-3N [6] = assay: as above
[7] = target: RSV B-003m-P215S-1×GCN4t-C102A-C362S (RSV B); assay: flow cytometry, Expi293F cells, Lipofectamine 2000-mRNA; mRNA RQ1
[8] = target: RSV B-003m-P215S-1×GCN4t-C155S-C290S (RSV B); assay: as above
[9] = target: RSV B-003m-P215S-1×GCN4t-C486D-C489D (RSV B); assay: as above
[10] = target: RSV B-003m-P215S-1×GCN4t-D92E (RSV B); assay: as above
[11] = target: RSV B-003m-P215S-1×GCN4t-G46S (RSV B); assay: as above
[12] = target: RSV B-003m-P215S-1×GCN4t-ori_linker (RSV B); assay: as above
RSV B-003m-P215S (RSV B) = assay: flow cytometry, Expi293F cells, Lipofectamine 2000-mRNA; mRNA RQ3
[13] = target: RSV B-003m-P215S-1×GCN4t (RSV B); assay: as above
[14] = target: RSV B-003m-P215S-1×GCN4t-C102A-C362S (RSV B); assay: as above
[15] = target: RSV B-003m-P215S-1×GCN4t-C155S-C290S (RSV B); assay: as above
[16] = target: RSV B-003m-P215S-1×GCN4t-C486D-C489D (RSV B); assay: as above
[17] = target: RSV B-003m-P215S-1×GCN4t-D92E (RSV B); assay: as above
[18] = target: RSV B-003m-P215S-1×GCN4t-F190S (RSV B); assay: as above
[19] = target: RSV B-003m-P215S-1×GCN4t-G46S (RSV B); assay: as above
[20] = target: RSV B-003m-P215S-1×GCN4t-ori_linker (RSV B); assay: as above
003m-1×GCN4t (RSV) = assay: flow cytometry, Expi293F cells transfected with the antigen's mRNA
003m-2×GCN4t (RSV) = assay: as above
DS-Cav1 (RSV) = assay: as above
DS-Cav1-1×GCN4t (RSV) = assay: as above
DS-Cav1-2×GCN4t (RSV) = assay: as above
[21] = target: 003m-P215S-ΔF111-1×GCN4t (RSV); assay: flow cytometry, Expi293F cells, mRNA-LNP (RL151); row 003m-P215S-ΔF111-1×GCN4t
003m-P215S-1×GCN4t (RSV) [22] = assay: flow cytometry, Expi293F cells, Lipofectamine 2000-mRNA; row 003M-P215S-1×GCNt (ORIG)
003m-P215S-1×GCN4t (RSV) [23] = assay: flow cytometry, Expi293F cells, Lipofectamine 2000-mRNA; row 003m-P215S-1×GCN4t-opti3
003m-P215S-1×GCN4t (RSV) [24] = assay: flow cytometry, Expi293F cells, Lipofectamine 2000-mRNA; row 003m-P215S-1×GCN4t-opti5
003m-P215S-1×GCN4t (RSV) [25] = assay: flow cytometry, Expi293F cells, Lipofectamine 2000-mRNA; row 003M-P215S-1×GCN4t (ORIG)

| Substance | MFI (003m-P215S (RSV) [1]) | MFI (003m-P215S-1×GCN4t (RSV) [2]) | MFI (003m-P215S-S-3N [3]) | MFI (003m-P215S-ΔF111 (RSV)) | MFI [4] | MFI (003m-P215S-ΔF111-S-3N) | MFI (003M-P215S-L (RSV)) | MFI (003M-P215S-L-3N (RSV)) | MFI (003M-P215S-S (RSV)) | MFI (003m-P215S (RSV) [5]) | MFI (003m-P215S-2×GCN4t (RSV)) | MFI (003m-P215S-S-3N [6]) | MFI [7] | MFI [8] | MFI [9] | MFI [10] | MFI [11] | MFI [12] | MFI (RSV B-003m-P215S (RSV B)) | MFI [13] | further results |
| --- | --- | --- | --- | --- | --- | --- | --- | --- | --- | --- | --- | --- | --- | --- | --- | --- | --- | --- | --- | --- | --- |
| AM14-AF488 (antibody) | 20000 | 4180 | 5920 | 45200 | 821 | 49100 | 4540 | 17500 | 5620 | 90100 | 1890 | 42400 | 3640 | 48400 | 8130 | 763 | 4140 | 175 | 353000 | 5060 | MFI [14]: 4430; MFI [15]: 47600; MFI [16]: 7590; MFI [17]: 814; MFI [18]: 11200; MFI [19]: 4100; MFI [20]: 182; MFI (003m-1×GCN4t (RSV)): 6550; MFI (003m-2×GCN4t (RSV)): 434000; MFI (DS-Cav1 (RSV)): 108000; MFI (DS-Cav1-1×GCN4t (RSV)): 923; MFI (DS-Cav1-2×GCN4t (RSV)): 437; MFI [21]: 821; MFI (003m-P215S-1×GCN4t (RSV) [22]): 2560; MFI (003m-P215S-1×GCN4t (RSV) [23]): 3430; MFI (003m-P215S-1×GCN4t (RSV) [24]): 2980; MFI (003m-P215S-1×GCN4t (RSV) [25]): 2560 |
| D25-AF488 (antibody) | 16400 | 3880 | 6730 | 37300 | 682 | 44800 | 5820 | 23400 | 8920 | 77200 | 2150 | 48800 | 13900 | 94600 | 8170 | 2250 | 4570 | 480 | 265000 | 6190 | MFI [14]: 16000; MFI [15]: 93500; MFI [16]: 7160; MFI [17]: 2110; MFI [18]: 13100; MFI [19]: 4220; MFI [20]: 515; MFI (003m-1×GCN4t (RSV)): 12100; MFI (003m-2×GCN4t (RSV)): 173000; MFI (DS-Cav1 (RSV)): 145000; MFI (DS-Cav1-1×GCN4t (RSV)): 1790; MFI (DS-Cav1-2×GCN4t (RSV)): 1170; MFI [21]: 682; MFI (003m-P215S-1×GCN4t (RSV) [22]): 3840; MFI (003m-P215S-1×GCN4t (RSV) [23]): 4990; MFI (003m-P215S-1×GCN4t (RSV) [24]): 4620; MFI (003m-P215S-1×GCN4t (RSV) [25]): 3840 |

From patent publication EP4814000A1
